Test results from the supplement of paper PMC12764529.
± gives the half width of the 95% confidence interval.

Experiments:
[1] = folding stability dG unfold from chymotrypsin proteolysis; higher = more stable
Summary of the method: (§1)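 Only designs with AlphaFold2 dimer inter-PAE above 15 were retained; each was a mini-protein under 80 residues with no cysteine, in a PA-tagged cDNA display construct. After digestion with trypsin and chymotrypsin and sequencing, K50 was inferred by Bayesian fitting of counts, and unfolding free energy was derived per protease or combined against a sequence-predicted unfolded-state K50 and a shared folded-state K50.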

[2] = folding stability dG unfold from trypsin proteolysis; higher = more stable
Summary of the method: as §1

[3] = folding stability dG unfold (combined trypsin and chymotrypsin); higher = more stable
Summary of the method: as §1

Sequence	folding stability dG unfold [1]	folding stability dG unfold [2]	folding stability dG unfold [3]
SAGGKVTVENDTLTIPFPDGFTVEITLPPNDKTAVITLHTPPNNPLALAAAKAIADSLPDYKVEVRDESAGG [r13_34_TrMRF]	0.649 ± 0.06 kcal/mol	0.662 ± 0.035 kcal/mol	0.704 ± 0.07 kcal/mol
SAGGNPRPIELYFPEGKIEKIQEKLREEDGYDVDIQMEQNPDGWFKINITFQDPQRVMDILEKFGITSAGGS [r16_172_TrROS]	1.37 ± 0.031 kcal/mol	1.19 ± 0.058 kcal/mol	1.26 ± 0.089 kcal/mol
SAGGPGAEIWFIKIPIEIEMKMKRKRENDPDGNPRPEWEMEMKIEIPIEIYPIRVRLDPDGKIKSIEFSAGG [r13_148_TrROS]	4.3 ± 0.11 kcal/mol	2.77 ± 0.15 kcal/mol	3.67 ± 0.23 kcal/mol
SAGGPPGWKPVEMKITVMFDDPEEAAEKIKEEVRSHFPNIEITKVEVQRNPENNMYMVTVDIRMWVPSAGGS [r8_120_TrROS]	3.37 ± 0.081 kcal/mol	3.08 ± 0.18 kcal/mol	3.37 ± 0.11 kcal/mol
SAGGSMIELTLTSTVPDGTPASTVPPEVAREQALAYAEAQGLTVVEIRVEFDPEAGTITIPVVTALSAGGSA [r2_237_JUSTAS]	0.679 ± 0.13 kcal/mol	1.38 ± 0.042 kcal/mol	1.11 ± 0.12 kcal/mol
SAGGETRTFMFPFKPGMPLEEIIEELIDVLQKKGKDYPIEFKPIEPDPNGYMLFMATVTNNKITIFWSAGGS [r8_7_TrROS]	3.03 ± 0.083 kcal/mol	2.22 ± 0.05 kcal/mol	2.83 ± 0.17 kcal/mol
SAGGSAGGSDVEVEEVDVEIEVNGKKFKVKIYRNKKDKNRYYIFFEDTGKVFEIDKNGNIRPLSAGGSAGGS [r12_580_TrROS_Hall]	3.49 ± 0.044 kcal/mol	2.74 ± 0.1 kcal/mol	3.21 ± 0.064 kcal/mol
SAGGSAGGSEKTLVTRTPDGYLLTLTEFTLPDGSKVTLATITFPNTGKTVTVPASLVPADATGSAGGSAGGS [r12_797_TrMRF]	3.061 ± 0.011 kcal/mol	1.45 ± 0.028 kcal/mol	2.63 ± 0.041 kcal/mol
SAGGSAGRSRPLRLRFENPENGLRTEVELRVFEIGDYRVILLRERTYHPDTPGLSERDLLILLPPESAGGSA [r15_960_TrMRF]	3.508 ± 0.023 kcal/mol	3.03 ± 0.058 kcal/mol	3.35 ± 0.1 kcal/mol
SAGGSAEEEVETVTLTVTVTVPPAPEVEVVSVEVERLPDGTLRVRAVVRLKDVPDRFVEVELTIRPSAGGSA [r15_627_TrROS_Hall]	2.95 ± 0.042 kcal/mol	3.41 ± 0.12 kcal/mol	3.18 ± 0.16 kcal/mol
SAGGSAGGSDDDENQKENQKAKPIKLEPIVEITVPYPDGFSLTVPIWRWPDGGIGIELEIFPLGSAGGSAGG [r6_326_TrROS]	1.44 ± 0.045 kcal/mol	0.867 ± 0.071 kcal/mol	1.3 ± 0.37 kcal/mol
SADPPDAVKIEIRIYMMEYDPDGKWEQREFNIEIEVAPDGHIIIRLGNWWIVIDPKEGEVTEIFPGFRFSAG [r14_821_TrROS]	3.67 ± 0.18 kcal/mol	3.43 ± 0.13 kcal/mol	3.14 ± 0.39 kcal/mol
SAGGSAGGSAVVALTPDGALAVWFPEKGVVVVYNPATGTYTVLTVDADNTVTLEDVPPNTDVFSAGGSAGGS [r12_997_TrMRF]	1.13 ± 0.07 kcal/mol	1.46 ± 0.032 kcal/mol	1.34 ± 0.057 kcal/mol
SAGGSAGGSAANVTREPRFDPSTNLVRTLVRFPDGSVREEILEITKNPDGTLTYKRFERPPSAGGSAGGSAG [r3_474_JUSTAS]	1.59 ± 0.18 kcal/mol	0.383 ± 0.12 kcal/mol	1.19 ± 0.14 kcal/mol
SAGGKYKIEIVDVEVKEDGTVTIKLKLYNENGELIAEIEIELKGVKEVTLELEIGGKKIKITLKVEKPSAGG [r13_427_TrROS_Hall]	5.3 ± 0.17 kcal/mol	4.13 ± 0.36 kcal/mol	5.36 ± 0.41 kcal/mol
SAGGSAESIPVDELVELAKKLGLDVTVTPLPETGLVRVEITFTTPDGSKVPATVLVHPDGRTTVFPSAGGSA [r15_1051_TrMRF]	2.208 ± 0.018 kcal/mol	1.82 ± 0.038 kcal/mol	2.08 ± 0.032 kcal/mol
SAGGEPMKIRIEIYRMKRKKDPKDGKEKWDMRPVPEYEIPFPPGETLLDILDKLPLPPGYMIKRISIESAGG [r13_716_TrROS]	2.07 ± 0.12 kcal/mol	2.28 ± 0.097 kcal/mol	2.13 ± 0.32 kcal/mol
